# Reference: the DeepSol protein solubility set
# Assay: soluble on expression in E. coli; label from the status in PepcDB or PDB records
row,Sequence,soluble on expression in E. coli
1,MAPPSDSDPREPSPPLFQGRGLTKRFGSFVANQAIDLDIAGGEVHALLGENGAGKSTLVKLITGLLQPDDGRMIWRGTPISFAGPAEARACGIAAVSQHFALFDNLTVVENVALGLDRRISVGRLATELEQISQRYGLPLDPKREVWRLSVGERQRIEIVRALLQNPQLLILDEPTAVLTPAEADRLFDVLQRLRADGRALLYISHKLDEVKRLASVATILRAGRVVGSCDPRQESAASMARMMVGSDVTAPKQSSHSIGGPLLSVSGLTQRPDDPHGVTLRDIALEVRSGEIVGIAGVAGNGQDELFAALSGETPIAQSDVIHIAGEAAGSLSINQRRRLGAAFVPEQRLGHATVPTMSLSDNALLTGHATGALVKFGLVNRGAALALVDRVSEAFDVRKASRDPEAARLSGGNLQKFIVGREILRQPRLLIVDQPSWGLDAGAASAIRQALLDLAASGAAVLVISQDLDELIEIADRIAVMFHGRLSPPRPVSEIGRDQLGLLMGGSGWPAEVRDVAGALEHHHHHH,not soluble
2,MWRAKKPTLERRSTDGRRSSIVDWINGLSDNNNYKSDHWVEKHDEGCERMTRNGSVCAVEESEPDVPTQHREVLLTKLKIEIKNIMAEHGAKKYLNLNSPYVTSLCIAVDACIMDGLRRRLLTLFNSPSSMSLLQIIAKSNGPAQQVLDQTREIEELRTSAIPVHLIWIREALYLKSLSTIINHFIDSKSVRRYYDNSALLLDPVKGRLVATLMMAPCMVTYRRMSNRIEQEATAEELVEGATRGSTSTVPSRPPLSKIKKIHFLDNPSSYMSLQKFYDGNLSLKWVPNQLMHASSQPSSGHSNNGEFTNIWKNTINIEMQDIIYIHLHQKDEISPTCLTFVNCEGVQSAPFQLPAGQHSIAFLSSLETGLAPLLRLDPPLWVGTTKEKILPRLRKRSTAVANPAMLDYVFRLVRTSGVEPAPEDIEDPLAPTSHSPPIHDNCVSLPNSPYIVDNVDSIVNFQIGTACQSMRNQIMARAFYGWLTYVRHLRTIRTHLLHLVDTKTLICDDDCDPVDEKFWKQARAEPTEENEKEFLKRVYWRGIEGINTKEVRRMAWPYLLGLFEWNESPESRLEQFTSQYWQDIEEWRVLEAEVRRRDEEAFRAARARKAASPVREESCDVFEDPNEPTCSQHYDRENLITLFRANLHRIDKDVERCDRNLMFFSNKDNLESLRRVMYTYVRRNLEEGYTQGMCDLLAPLLVTFEDEALTLECFSLLMLRQRGKFPQRPGMSKCLLNLRSLIQVVDPQIYALISDIDYAQALSFAFRWFLLDFKRELSYECTYKVWEVIWAAQRLRITDDFAIFFGLATITNYHDVLITNNFDYTDMIKFFNEMAERHDCSRLLSSARTHVKCLQNLVQHLK,soluble
3,MEIPPTNYPASRAALVAQNYINYQQGTPHRVFEVQKVKQASMEDIPGRGHKYRLKFAVEEIIQKQVKVNCTAEVLYPSTGQETAPEVNFTFEGETGKNPDEEDNTFYQRLKSMKEPLEAQNIPDNFGNVSPEMTLVLHLAWVACGYIIWQNSTEDTWYKMVKIQTVKQVQRNDDFIELDYTILLHNIASQEIIPWQMQVLWHPQYGTKVKHNSRLPKEVQLE,soluble
4,MGSDKIHHHHHHMSSDIHLAFAHPSERSAATARPGALDRISLRDHIVEVEIGAFQQERGTTQRVCFNVVVEIAPLPADLDDDVDRILSYDKVTEAIAHELARERLALLETLAERVAERILWEPQAVRAFVRIEKLDRGPGKLGVEIVRSADQVSHEADEDVKPHPRLMFLSNAAIDSDNLTGWIDQMECRERPLILCVGAHDLALPQTGHKWTQRRIDLLAIEQNAWRLAARDSRCKVVETRTELDWAMKNGQICVWAPSKIVLDAVEGPSEPPSNAVALAAWFASTFEAEEMIVIGAELPENPGVPLRAHAEEQHTL,not soluble
5,MGSDKIHHHHHHMSSNALYTDLSGYYDLMCSDINYQQQSASIHRLHQFLGNNGKQHLDLACGTGPHVRHFIDLGYQCSGLDINQPMLDMAMRRCPEAQFNLQDMTAFYLEERVDLITCFLYSIHYSACIERLKSCIASVHSALNDGGLFCFNTVDKHRIDNTASVKHFAEFDGSHFAFESGWHYSGQGEKQSLKLSIAKSRLPFTEVSASPLPVSDMKGLGSLEAGLHAAGLQEVGLQELHSIEQWQDQHAMVATSFTELQELLAPYFEVHVFEHDYERIVPWDLASGNALFVCVKI,not soluble
6,GPGSMPPAPAPPFSSVSQCLSALLPPTAFSLLPLTHTHTHTHTHRTCTHIIFSEPHIVFYCVCPFTRCHRRRPLPSPLSLSLPQHTTLSTAINKHEAEVVLDWSMSRLARALAKPFTVPVAMCTRHVAAMDEPLKRHIDAYAARGEDITIAVWREYVDGQRALLPYRWTKFRSEVAYLTSGQMAITDLTFADLLVFIRFLTKCLFIFIVAVMVGRRSVFPSLEPTSPFVEEIVKNWQPNRLHGVAGAEYMACDQAAAAGYGHR,soluble
7,GMNLDSYERTGLRVSLDLVNIATPGSRRGTPHTGGCVIEDLHDLLKDDPASVAQLGDDHVEGFVELARLLHTAIDALSNGQVATAATALNHLLRKHPATPELAQDPDGTWRLHHHPLDAELVPMWTAICAEGLAREIGHQNVRRFGICNAHRCDRVYFDTSRNGTRQYCSLACQNRVKAAAFRERRAT,soluble
8,GPLGSMTGPSVHDRALGAFLGLAVGDALGATVEFMTKGEIAQQYGIHRKMTGGGWLRLKPGQITDDTEMSLALGRSLAAKGTLDVADICEEFALWLKSRPVDVGNTCRRGIRRYMHEGTTTAPYSEGDAGNGAAMRCLPAALATLGHPADLEPWVLAQARITHNHPLSDAACLTLGRMVHHLIGGRGMKACREEANRLVHQHRDFHFEPYKGQSSAYIVDTMQTVLHYYFVTDTFKSCLIQTVNQGGDADTTGALAGMLAGATYGVDDIPSGWLSKLDMKVEREIRRQVDALLALAGLD,soluble
9,MLYDLAKQRKTVRKFKEEKPSIEKLMYCLKVANEAPSGMNAQPWRFLVVKDEETKRQIRETCEKAEKDFYENVRGKLKEWLNENSFNWKKPFLEEAPYLLLVFSKKDAPYSRESVWLAIGYLLLALEEQGLGTVPYTPPNPNELTKIVNTPSDLRFEVILPVGYPDDPKPKYPREEMKVSFNHF,not soluble
10,GPGSMPVPPPPPPPPPPPPPPPPPANSGGPSASVGGAAAAVFAEICQGGDNITARLRHVTDDQKMYKQNIRHGEVDMSELEHKKAAAEERRRAQQRTESTTGEEAAQPPVLTLEGDKRWVVKHQAGSPAVQLQLVLDKAEMRHAVRIENCHHAYITITNKVNSVSIVNCTKVQVALQVIVSSLEVLGCADVDVQVAQAAPTIDIERSTSVNVYLLDKDEARNTEIVTACSSTVNVLFPSEKEEDIVERAIPEQFVTRIVPDGKGGHKLCTKPSESF,soluble
11,MSLSPAPTTMDFTPAPLEDTSSRPQFCKWPCECPPSPPRCPLGVSLITDGCECCKMCAQQLGDNCTEAAICDPHRGLYCDYSGDRPRYAIGVCAQVVGVGCVLDGVRYNNGQSFQPNCKYNCTCIDGAVGCTPLCLRVRPPRLWCPHPRRVSIPGHCCEQWVCEDDAKRPRKTAPRDTGAFDAVGEVEAWHRNCIAYTSPWSPCSTSCGLGVSTRISNVNAQCWPEQESRLCNLRPCDVDIHTLIKAGKKCLAVYQPEASMNFTLAGCISTRSYQPKYCGVCMDNRCCIPYKSKTIDVSFQCPDGLGFSRQVLWINACFCNLSCRNPNDIFADLESYPDFSEIANEGHHHHHH,not soluble
12,LRKQVELLFNTRYAKAIGISEPVKVPYSKFLMHPEELFVVGLPEGISLRRPNCFGIAKLRKILEASNSIQFVIKRPELLTEGVKEP,soluble
13,QSEPELKLESVVIVSRHGVRAPTKATQLMQDVTPDAWPTWPVKLGWLTPRGGELIAYLGHYQRQRLVADGLLAKKGCPQSGQVAIIADVDERTRKTGEAFAAGLAPDCAITVHTQTDTSSPDPLFNPLKTGVCQLDNANVTDAILSRAGGSIADFTGHRQTAFRELERVLNFPQSNLCLKREKQDESCSLTQALPSELKVSADNVSLTGAVSLASMLTEIFLLQQAQGMPEPGWGRITDSHQWNTLLSLHNAQFYLLQRTPEVARSRATPLLDLIKTALTPHPPQKQAYGVTLPTSVLFIAGHDTNLANLGGALELNWTLPGQPDNTPPGGELVFERWRRLSDNSQWIQVSLVFQTLQQMRDKTPLSLNTPPGEVKLTLAGCEERNAQGMCSLAGFTQIVNEARIPACSL,soluble
14,MMLCFQEVALNGGNILSKFTERLLTILYPPICPGCKQRVSAYGTICSECWKDLQFITKPYCPVMGVPFVYDMGDGFLSGEALQNSLPFSRVRSVIVHKGVAQSLVTRLKYGDHVELASFMANWMVSAGREIVDDCDIIISVPLHFRRFLKRRYNQSAELARYIARVQKKEFKPGWLVRCRHTRPQVNLSARERKLNVLNAFEVPRKVKKYLKGRSILLIDDVFTTGATVTAAAATLKRAGARQVDVLTFSRVLKEASIFPNS,not soluble
15,MSVSARSAAAEERSVNCGTMAQPKNLEGYVGFANLPNQVYRKSVKRGFEFTLMVVGESGLGKSTLINSLFLTDLYSPEYPGPSHRIKKTVQVEQSKVLIKEGGVQLLLTIVDTPGFGDAVDNSNCWQPVIDYIDSKFEDYLNAESRVNRRQMPDNRVQCCLYFIAPSGHGLKPLDIEFMKRLHEKVNIIPLIAKADTLTPEECQQFKKQIMKEIQEHKIKIYEFPETDDEEENKLVKKIKDRLPLAVVGSNTIIEVNGKRVRGRQYPWGVAEVENGEHCDFTILRNMLIRTHMQDLKDVTNNVHYENYRSRKLAAVTYNGVDNNKNKGQLTKSPLAQMEEERREHVAKMKKMEMEMEQVFEMKVKEKVQKLKDSEAELQRRHEQMKKNLEAQHKELEEKRRQFEEEKANWEAQQRILEQQNSSRTLEKNKKKGKIF,not soluble
16,MSTDSQNPVRKSCAQPHSCSQEVRLKAMSRSPLTKGLNQLEHLELDKSLTAWSWAEDDPLYLAGENLNGSYLIVAGRVRVSRDTIDGKELTVDIATPGDVIGAIDTEPQPAVDSAWAIETTCALFLPATALATVIEQHPSFALAMIRMQQQRLATARDHEINLTTTTVEQRVAIAVRTLGRKIGQRRPDGILLIQVRIRREDVAGLAGTTVESTSRVLARLRKEGVIDSGREWIAVVDERQLDAIIGEDF,not soluble
17,MKPENKIPVLTRLSDEMTAVVNFQQPGLPPWPADGDIETQRQYYLLERRFWNADAPSMTTRTCAVPTPYGDVTTRLYSPQPTSQATLYYLHGGGFILGNLDTHDRIMRLLARYTGCTVIGIDYSLSPQARYPQAIEETVAVCSYFSQHADEYSLNVEKIGFAGDSAGAMLALASALWLRDKHIRCGNVIAILLWYGLYGLQDSVSRRLFGGAWDGLTREDLDMYEKAYLRNDEDRESPWYCLFNNDLTRDVPPCFIASAEFDPLIDDSRLLHQTLQAHQQPCEYKMYPGTLHAFLHYSRMMTIADDALQDGARFFMARMKTPR,not soluble
18,SNAMATNLIGLDTTQSQKLANALNNLLANYQVFYMNTRGYHWNIQGKEFFELHAKFEEIYTDLQLKIDELAERILTLSARPMHSFSGYLKAAQIKEHTDSIDGRSSMQGLVDGFSILLHQQRDILELAGETGDEGTSALMSDYIREQEKLVWMLNAWLK,soluble
19,DRQREAAQPAASQSASAMEANPTPAPDRSTSTSLFGDSDSAPRHRLNEEPAARRTSHDSEGMYTRRSVPRESYRDQRSDDFDDDLDIPDFLR,not soluble
20,MRWKKINITINNVEMILVAAIIIDVPPVVDLCVKTMIHNINSTNCIRMFNFSKRYGIKKLYNASMSEIINNITAVTSDPEFGKLSKDELTTILSHENVNVNHEDVTL,not soluble
